# Source: patent US20240002514A1
# Biological target: human PD-L1 expressed on the cell surface (CHO cells expressing human PD-L1; Promega CS187103 / 187103 cells) (human) (UniProt Q9NZQ7)
# Sequence (Q9NZQ7 19-290): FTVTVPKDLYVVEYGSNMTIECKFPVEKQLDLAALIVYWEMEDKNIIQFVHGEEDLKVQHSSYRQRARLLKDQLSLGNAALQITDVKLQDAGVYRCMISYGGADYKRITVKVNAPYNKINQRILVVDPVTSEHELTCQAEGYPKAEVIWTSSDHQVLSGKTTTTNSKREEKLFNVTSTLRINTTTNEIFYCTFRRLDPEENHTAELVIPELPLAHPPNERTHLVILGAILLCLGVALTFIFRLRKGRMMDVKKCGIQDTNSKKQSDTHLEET
binder,measurement,value
"29E.2A3 (antibody, from another filing, V domains shown) VH: EVQLQQSGPELVKPGASVKMSCKASGYTFTSYVMHWVKQKPGQGLEWIGYVNPFNDGTKYNEMFKGKATLTSDKSSSTAYMELSSLTSEDSAVYYCARQAWGYPWGQGTLVTVSA VL: DIVLTQSPASLAVSLGQRATISCRATESVEYYGTSLVQWYQQKPGQPPKLLIYAASSVDSGVPARFSGSGSGTDFSLTIHPVEEDDIAMYFCQQSRRVPYTFGGGTKLEIK","EC50, PD-1/PD-L1 blockade (% PDL1 Blockade, NFAT-luciferase reporter)",170 pM
